According to patent US20220332795A1 (ARO BIOTHERAPEUTICS, published 2022):

Key:
[1] = target: T1, recombinant biotinylated CD71 extracellular domain (Sino Biologics) with an N-terminal 6His tag (human, UniProt P02786 89-760, biotinylated (site not stated)); experiment: primary solution ELISA screen, signal on hCD71 over HSA
T1 construct: extracellular domain; also called hCD71; huCD71 ECD

[2] = target: T1, recombinant biotinylated CD71 …; experiment: primary solution ELISA screen
[3] = target: T2, human CD71 extracellular domain (human, UniProt P02786 89-760, biotinylated); experiment: solution ELISA screen (luminescence)
T2 construct: extracellular domain; also called hCD71; huCD71 ECD
T2 sequence (P02786 other isoform, or with tags, fused parts or gaps): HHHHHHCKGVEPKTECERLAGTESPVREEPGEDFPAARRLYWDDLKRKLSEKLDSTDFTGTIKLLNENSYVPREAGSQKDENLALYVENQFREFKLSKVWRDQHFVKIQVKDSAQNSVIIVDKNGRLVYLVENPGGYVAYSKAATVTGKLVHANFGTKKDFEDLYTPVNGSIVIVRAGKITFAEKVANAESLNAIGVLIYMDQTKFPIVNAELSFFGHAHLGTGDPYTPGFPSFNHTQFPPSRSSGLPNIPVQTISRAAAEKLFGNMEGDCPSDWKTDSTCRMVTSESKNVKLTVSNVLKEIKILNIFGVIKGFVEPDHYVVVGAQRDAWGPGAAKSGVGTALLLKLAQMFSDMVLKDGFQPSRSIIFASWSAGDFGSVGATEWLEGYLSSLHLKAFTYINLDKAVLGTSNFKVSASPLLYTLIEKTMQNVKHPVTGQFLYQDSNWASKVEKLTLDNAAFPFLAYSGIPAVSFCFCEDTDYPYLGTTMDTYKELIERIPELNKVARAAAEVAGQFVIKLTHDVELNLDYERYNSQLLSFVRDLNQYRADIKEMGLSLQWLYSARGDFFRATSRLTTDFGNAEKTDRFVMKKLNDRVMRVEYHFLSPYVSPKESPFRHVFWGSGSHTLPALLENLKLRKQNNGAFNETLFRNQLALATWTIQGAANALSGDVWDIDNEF

CD71 apical domain [4] = target: T3, CD71 apical domain (human, UniProt P02786 189-383, limits assumed); experiment: solution ELISA screen (luminescence)
T3 construct: domain: apical domain
T3 sequence (P02786 189-383 limits assumed): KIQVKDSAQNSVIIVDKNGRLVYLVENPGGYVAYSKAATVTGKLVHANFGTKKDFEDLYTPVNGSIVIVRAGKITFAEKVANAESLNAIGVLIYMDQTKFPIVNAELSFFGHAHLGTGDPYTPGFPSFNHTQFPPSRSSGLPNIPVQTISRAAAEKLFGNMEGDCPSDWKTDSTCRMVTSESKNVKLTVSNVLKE

[5] = target: T2, human CD71 extracellular domain; experiment: solution ELISA screen, signal ratio to HSA control
CD71 apical domain [6] = target: T3, CD71 apical domain; experiment: solution ELISA screen, signal ratio to HSA control

T1 sequence (P02786 other isoform, or with tags, fused parts or gaps): as the sequence (P02786 other isoform, or with tags, fused parts or gaps) above

Binder	hCD71:HSA [1]	RLU [2] [RLU]	RLU [3] [RLU]	RLU (CD71 apical domain [4]) [RLU]	hCD71:HSA [5] [ratio]	apical domain:HSA (CD71 apical domain [6]) [ratio]
SEQ ID NO 24 (designed binder, not shown: small tags and cut ends, FN3 domain, hit of the apical domain panning) MLPAPKNLVVSRVTEDSARLSWTAPDAAFDSFMIRYQEGTRWGEAIVLTVPGSERSYDLTGLKPGTEYIVMIAGVKGGQISLPLSAIFTT	374	2.45e+06				
SEQ ID NO 27 (designed binder, not shown: small tags and cut ends, FN3 domain, hit of the apical domain panning) MLPAPKNLVVSRVTEDSARLSWTAPDAAFDSFRISYAETVRQGEAIVLTVPGSERSYDLTVETGYRNWVMILGVKGGPGSLPLSAIFTT	127	297000				
SEQ ID NO 225 (designed binder, not shown: small tags and cut ends) MLPAPKNLVVSRVTEDSARLSWTAPDAAFDSFYIAYAEPRPDGEAILLQVPGSERSYDLTGLKPGTEYSVLIHGVKGGLLSSPLSASFTT			4.06e+06	7.38e+06	239	435
SEQ ID NO 207 (designed binder, not shown: small tags and cut ends) MLPAPKNLVVSRVTEDSARLSWTAPDAAFDSFYIAYAEPRPDGEAIHLSVPGSERSYDLTGLKPGTEYSVLIHGVKGGLLSSPLAAYFTT			2.74e+06	7.11e+06	22.6	58.8
SEQ ID NO 206 (designed binder, not shown: small tags and cut ends) MLPAPKNLVVSRVTEDSARLSWTAPDAAFDSFYIAYAEPRPDGEAIGLDVPGSERSYDLTGLKPGTEYSVLIHGVKGGLLSSPLSAIFTT			828000	5.22e+06	59.1	373
SEQ ID NO 23 (designed binder, not shown: small tags and cut ends, FN3 domain, hit of the apical domain panning) MLPAPKNLVVSRVTEDSARLSWTAPDAAFDSFAIWYHEWYGDGEAIVLTVPGSERSYDLTGPKPGTEYRVRISGVKGGFESGPLSAIFTT	110	1.39e+06				
SEQ ID NO 31 (designed binder, not shown: small tags and cut ends, FN3 domain, hit of the apical domain panning) MLPAPKNLVVSRVTEDSARLSWTAPDAAFDSFTIEYSEHPIDGEAIPLFVPGSERSYDLTGLKPGTEYYVRIHGVKGGWFSHPLWAFFTT	138	642000				
SEQ ID NO 22 (designed binder, not shown: small tags and cut ends, FN3 domain, hit of the apical domain panning) MLPAPKNLVVSRVTEDSARLSWTAPDAAFDSFWYLELQFAGEAIVLTVPGSERSYDLTGLKPGTEYNVPITGVKGGIISFPLSAIFTT	105	3.15e+06				
SEQ ID NO 21 (designed binder, not shown: small tags and cut ends, FN3 domain, hit of the apical domain panning) MLPAPKNLVVSRVTEDSARLSWTAPDAAFDSFSIRYNEFIVAGEAIVLTVPGSERSYDLTGLKPGTEYDVPIAGVKGGGASWPLSAIVTT	85	579000				
SEQ ID NO 25 (designed binder, not shown: small tags and cut ends, FN3 domain, hit of the apical domain panning) MLPAPKNLVVSRVTEDSARLSWTAPDAAFDSFPIWYLEKSYQGEAIVLTVPGSERSYDLTGLKPGTEYVVPIIGVKGGRDSCPLSAIFTT	58	222000				
SEQ ID NO 35 (designed binder, not shown: small tags and cut ends, FN3 domain, hit of the apical domain panning) MLPAPKNLVVSRVTEDSARLSWTAPDAAFDSFPISYIESIADGEAIVLTVPGSERSYDLTGLKPGTEYWVAIVGVKGGPFSWSLSAIVTT	106	1.99e+06				

Second part, the binder after the results:

hCD71:HSA [1]	RLU [2] [RLU]	RLU [3] [RLU]	RLU (CD71 apical domain [4]) [RLU]	hCD71:HSA [5] [ratio]	apical domain:HSA (CD71 apical domain [6]) [ratio]	Binder
		3.48e+06	6.81e+06	214	420	SEQ ID NO 217 (designed binder, not shown: small tags and cut ends) MLPAPKNLVVSRVTEDSARLSWTAPDAAFDSFYIAYAEPRPDGEAIILEVPGSERSYDLTGLKPGTEYSVLIHGVKGGLLSSPLRAVFTT
		2.02e+06	5.84e+06	90.4	261	SEQ ID NO 215 (designed binder, not shown: small tags and cut ends) MLPAPKNLVVSRVTEDSARLSWTAPDAAFDSFYIAYAEPRPDGEAIVLWVPGSERSYDLTGLKPGTEYSVLIHGVKGGLLSSPLIAEFTT
		393000	4.3e+06	13	143	SEQ ID NO 214 (designed binder, not shown: small tags and cut ends) MLPAPKNLVVSRVTEDSARLSWTAPDAAFDSFYIAYAEPRPDGEAIGLQVPGSERSYDLTGLKPGTEYSVLIHGVKGGLLSSPLCAEFTT
		144000	2.85e+06	10.2	202	SEQ ID NO 218 (designed binder, not shown: small tags and cut ends) MLPAPKNLVVSRVTEDSARLSWTAPDAAFDSFYIAYAEPRPDGEAIHLVVPGSERSYDLTGLKPGTEYSVLIHGVKGGLLSSPLSAIFTT
		467000	5.09e+06	26.8	292	SEQ ID NO 212 (designed binder, not shown: small tags and cut ends) MLPAPKNLVVSRVTEDSARLSWTAPDAAFDSFYIAYAEPRPDGEAIWLAVPGSERSYDLTGLKPGTEYSVLIHGVKGGLLSSPLHAQFTT
		635000	4.99e+06	22.5	177	SEQ ID NO 227 (designed binder, not shown: small tags and cut ends) MLPAPKNLVVSRVTEDSARLSWTAPDAAFDSFYIAYAEPRPDGEAIGLRVPGSERSYDLTGLKPGTEYSVLIHGVKGGLLSSPLSAIFTT
		660000	4.74e+06	50.6	363	SEQ ID NO 211 (designed binder, not shown: small tags and cut ends) MLPAPKNLVVSRVTEDSARLSWTAPDAAFDSFYIAYAEPRPDGEAIQLHVPGSERSYDLTGLKPGTEYSVLIHGVKGGLLSSPLVAIFTT
		3.55e+06	6.82e+06	136	261	SEQ ID NO 224 (designed binder, not shown: small tags and cut ends) MLPAPKNLVVSRVTEDSARLSWTAPDAAFDSFYIAYAEPRPDGEAILLRVPGSERSYDLTGLKPGTEYSVLIHGVKGGLLSSPLVAEFTT
		2.15e+06	6.38e+06	135	400	SEQ ID NO 226 (designed binder, not shown: small tags and cut ends) MLPAPKNLVVSRVTEDSARLSWTAPDAAFDSFYIAYAEPRPDGEAIGLHVPGSERSYDLTGLKPGTEYSVLIHGVKGGLLSSPLTASFTT
		460000	4.95e+06	38.8	418	SEQ ID NO 219 (designed binder, not shown: small tags and cut ends) MLPAPKNLVVSRVTEDSARLSWTAPDAAFDSFYIAYAEPRPDGEAISLKVPGSERSYDLTGLKPGTEYSVLIHGVKGGLLSSPLEAIFTT
		6.2e+06	8.3e+06	348	466	SEQ ID NO 209 (designed binder, not shown: small tags and cut ends, also called ABX1198) MLPAPKNLVVSRVTEDSARLSWTAPDAAFDSFYIAYAEPRPDGEAILLQVPGSCRSYDLTGLKPGTEYSVLIHGVKGGLLSSPLTAIFTT
		3.1e+06	5.05e+06	117	190	SEQ ID NO 241 (designed binder, not shown: small tags and cut ends) MLPAPKNLVVSRVTEDSARLSWTAPDAAFDSFFIGYLEPQPPGEAIHLGVPGSERSYDLTGLKPGTEYNVTIQGVKGGFPSIPLFASFTT
